The source of these data is the supplement of paper PMC10567573.

The nature of this data set: protein stability index of a GFP-peptide fusion (GPS, HEK-293T) (PSI 1-6); higher = more stable.
[1] abbreviates: treatment: DMSO, c terminus: a fixed tail appended.
[2] abbreviates: treatment: MLN4924 1 uM, 8 h, c terminus: a fixed tail appended.

± gives the standard deviation.
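Also: 24-mer peptide tiles fused after GFP, lentivirally expressed, FACS-sorted into six equal bins by GFP/DsRed ratio, decoded by Illumina sequencing, PSI is the read-weighted mean bin number.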

For EVAAQLPAVRQLLPCARVQICRAQ [ZSWIM9], the protein stability index by setting is: under setting [1], 2.42 ± 0.23; under setting [2], 2.77 ± 0.35.

EVHVPPSSAVSGVKEWFGLGGEQA [MIA2] registered a protein stability index under setting [1] of 4.31 ± 0.22 and a protein stability index under setting [2] of 4.29 ± 0.44.

For EVPLEVLRQRESKWLDMLNNWDKW [TBC1D10A], the protein stability index under setting [1] was determined as 2.8 ± 0.18 and the protein stability index under setting [2] is 3.17 ± 0.49.

As to EVTVQRNCCLTLCNFSIPEELEFQ [ZER1], the protein stability index is, setting by setting: under setting [1], 2.68 ± 0.26; under setting [2], 2.59 ± 0.42.

Consider EVWGNALLRPPVAAFVRAQADLLA [DNAAF3], for which the protein stability index reads like this: under setting [1], 2.39 ± 0.31; under setting [2], 2.02 ± 0.37.

Regarding EYEGGHIKTAVNLPLERDAESFLL [CDC25B], the protein stability index reads like this: under setting [1], 3.91 ± 0.16; under setting [2], 3.97 ± 0.21.

As to EYRQRRERNNIAVRKSRDKAKRRN [CEBPD], the protein stability index reads like this: under setting [1], 4.42 ± 0.36; under setting [2], 4.426 ± 0.023.

With FALQGLPLNCAPCPRRSEPVVQCQ [IRX6], the protein stability index came to 2.7 ± 0.16 under setting [1] and 2.79 ± 0.28 under setting [2].

For FAPLWEVFRVSSDKLALCHLELTR [FCHO1], the protein stability index reads like this: under setting [1], 2.68 ± 0.36; under setting [2], 2.52 ± 0.29.

Take FAQADALKGTLVSTLKEVKPTVFI [ACSBG2]: the protein stability index runs as follows: under setting [1], 2.4 ± 0.52; under setting [2], 3.04 ± 0.86.

Turning to FEPPAPGEGNSSQNSRNKRAVQGP [TNFSF13B], the protein stability index runs as follows: under setting [1], 5.3 ± 0.17; under setting [2], 5.45 ± 0.2.

FEYRGEQHKTCMLNATSKFMEFYQ [EDNRA] yielded a protein stability index under setting [1] of 2.08 ± 0.36 and a protein stability index under setting [2] of 1.89 ± 0.32.

In the case of FGEDGIFRHDRLRFRDFVDALEDS [PBXIP1], the protein stability index reads like this: under setting [1], 3.29 ± 0.32; under setting [2], 3.58 ± 0.46.

FGLSILWVLLFTPCSFVCWYRPMY [SCAMP3] gave a protein stability index under setting [1] of 2.97 ± 0.37 and a protein stability index under setting [2] of 3.48 ± 0.32.

As to FGNSEKPETMTCRLSNNQRYLFLD [ZFYVE21], the protein stability index came to 2.44 ± 0.42 under setting [1] and 2.1 ± 0.54 under setting [2].

On to FHEVGTEMIITKAGRRMFPSYKVK [TBX5], for which the protein stability index stood at 2.35 ± 0.35 under setting [1] and 2.72 ± 0.33 under setting [2].

With FHRSQTLSYRNGYAIVRRPTVGIG [EFHC1], the protein stability index is, setting by setting: under setting [1], 2.44 ± 0.39; under setting [2], 2.54 ± 0.22.

Regarding FHYVDILALLPAAWEDSHGSQDGH [SCNN1D], the protein stability index stood at 2.26 ± 0.56 under setting [1] and 2.13 ± 0.25 under setting [2].

In the case of FKLADPDEVARRWGKRKNKPKMNY [ETS2], the protein stability index was determined as 3.48 ± 0.48 under setting [1] and 3.67 ± 0.13 under setting [2].

FKSLDKKNDGRIDAQEIMQSLRDL [SLC25A25]: the protein stability index is, setting by setting: under setting [1], 4 ± 0.2; under setting [2], 3.92 ± 0.34.

For the sequence FLPSLRPPPLTSPSHGSLSHSKAP [NCF4], the protein stability index amounted to 3.45 ± 0.13 under setting [1] and 3.63 ± 0.14 under setting [2].

Regarding FNAGIQQAFQLPKLGALLSRCRKL [ZBED1], the protein stability index under setting [1] amounted to 2.63 ± 0.31 and the protein stability index under setting [2] turned out to be 2.63 ± 0.29.

Consider FNMLHDNSKPCISLNGPLSTSRHV [ADAMTS4], for which the protein stability index was determined as 3.21 ± 0.22 under setting [1] and 3.26 ± 0.25 under setting [2].

Regarding FPNQKSEAAEPPKTPPSSCDSTNA [KMT5A], the protein stability index by setting is: under setting [1], 5.52 ± 0.13; under setting [2], 5.53 ± 0.2.

FPYFRSDRDKRDFVSAGAAAGVAA [CLCN6]: the protein stability index turned out to be 3.63 ± 0.45 under setting [1] and 3.82 ± 0.23 under setting [2].

The sequence FQEAQIKRKARNEGRNRRRQQVLP [CDKL4] showed a protein stability index under setting [1] of 3.79 ± 0.54 and a protein stability index under setting [2] of 4.08 ± 0.14.

In turn, FQPQPVQPQQGYIPPMAQPGLPPV [ZNF207] came in with a protein stability index under setting [1] of 3.5 ± 0.31 and a protein stability index under setting [2] of 3.74 ± 0.26.

Regarding FQSHEPEFDYLKSLEIEEKINKIR [PPP2R2B], the protein stability index runs as follows: under setting [1], 3.26 ± 0.36; under setting [2], 3.56 ± 0.31.

With FSLTHTHTHTPNHRGINCFFPEL [ANKRD44], the protein stability index stood at 2.54 ± 0.56 (treatment: DMSO, c terminus: native) and 2.76 ± 0.57 (treatment: MLN4924 1 uM, 8 h, c terminus: native).

On to FSLVLVLDLSKPNDLWPTMENLLQ [DYNC2LI1], for which the protein stability index is, setting by setting: under setting [1], 2.67 ± 0.51; under setting [2], 2.72 ± 0.41.

Regarding FSSQKLKCLSMFPHYICTLKQPHL [PNLIPRP1], the protein stability index came to 2.66 ± 0.57 under setting [1] and 2.17 ± 0.35 under setting [2].

On to FTCDEENVFAAVGRGLYVYSLQMK [WDR41], for which the protein stability index runs as follows: under setting [1], 2.57 ± 0.56; under setting [2], 2.38 ± 0.093.

For the sequence FTELRLLLDEEEALAKKFIDKNTQ [TRIM14], the protein stability index under setting [1] was 2.68 ± 0.53 and the protein stability index under setting [2] is 3.44 ± 0.93.

FTRNEFNLESKSTIGVEFATRSIQ [RAB11A]: the protein stability index under setting [1] was determined as 2.97 ± 0.3 and the protein stability index under setting [2] was 3.2 ± 0.21.

As for FTVNPKPRVEYIDRPRCCLRGKEC [BTBD1], the protein stability index runs as follows: under setting [1], 2.92 ± 0.11; under setting [2], 3.23 ± 0.35.

In turn, FVLSCSYDGLDCQARQFRTFHHPT [SCNN1D] had a protein stability index under setting [1] of 2.62 ± 0.74 and a protein stability index under setting [2] of 2.63 ± 0.58.

In the case of FVSFFNKWDAENAIQQMGGQWLGG [TIA1], the protein stability index by setting is: under setting [1], 2.69 ± 0.78; under setting [2], 2.1 ± 0.59.

For the sequence FVTYVFFVFFVLLNMFLAIINDTY [PKD2L1], the protein stability index by setting is: under setting [1], 2.3 ± 0.47; under setting [2], 2.26 ± 0.45.

FYHCSNDDEGDSYSDNPCSCSQSH [SPRY1]: the protein stability index is, setting by setting: under setting [1], 4.28 ± 0.076; under setting [2], 4.31 ± 0.25.

Take FYKRRGASDLSSEEGWRLFKIDKE [SAT1]: the protein stability index turned out to be 3.32 ± 0.21 under setting [1] and 3.62 ± 0.49 under setting [2].

As for GAGHCSASPGPAAPTARMPGRLRG, the protein stability index runs as follows: under setting [1], 4.82 ± 0.34; under setting [2], 4.78 ± 0.25.

For the sequence GAQELLEFTIRDLQRLGELQSELA [INTS4], the protein stability index runs as follows: under setting [1], 2.54 ± 0.36; under setting [2], 2.79 ± 0.29.

As for GAQGSGGGSTSAHYAVNSQFTMGG [CARM1], the protein stability index came out at 3.92 ± 0.34 under setting [1] and 4.23 ± 0.2 under setting [2].

Turning to GAQIWCGEGVDKLSLPARNQAGYF [ALDH8A1], the protein stability index was 2.47 ± 0.27 under setting [1] and 2.65 ± 0.37 under setting [2].

Regarding GARQQQVTTYLHKDYNNLWIIKKH [POMT2], the protein stability index runs as follows: under setting [1], 2.49 ± 0.27; under setting [2], 2.58 ± 0.35.

In the case of GATTLGDMIYVSGGFDGSRRHTSM [KLHL12], the protein stability index under setting [1] turned out to be 2.88 ± 0.38 and the protein stability index under setting [2] is 3.02 ± 0.5.

As to GCVSRCWEVQVSPTCPVCKDRASP [TRIM35], the protein stability index came to 4.04 ± 0.28 under setting [1] and 4.13 ± 0.44 under setting [2].

With GDETAHRIDSQFLIGDTLLVAPVL [MYORG], the protein stability index amounted to 2.94 ± 0.3 under setting [1] and 2.85 ± 0.34 under setting [2].

For the sequence GDHRSPASAQKFSSRSTVPTPAKR [NET1], the protein stability index is, setting by setting: under setting [1], 4.75 ± 0.38; under setting [2], 5.05 ± 0.23.

For the sequence GEKPFECNECGKAFRWGAHLVQHQ [ZNF232], the protein stability index came to 2.58 ± 0.52 under setting [1] and 2.62 ± 0.82 under setting [2].

As for GEKSENNSSNSDIVHVEKEEVPEG [BCL2L13], the protein stability index reads like this: under setting [1], 5.8 ± 0.2; under setting [2], 5.3 ± 0.76.

GFALNPDKKTCTKIDYCASSNHGC [MATN2]: the protein stability index was 3.53 ± 0.31 under setting [1] and 3.57 ± 0.64 under setting [2].

For GFEESEPLTGFLTTVPDGPTQLRA [TNXB], the protein stability index under setting [1] was found to be 4.44 ± 0.41 and the protein stability index under setting [2] is 4.52 ± 0.3.

Take GFQPPSPSLRPRPASSISLPIGHL [DMRTC1]: the protein stability index is, setting by setting: under setting [1], 3.43 ± 0.21; under setting [2], 3.44 ± 0.19.

GFRESDSAKPASLRLLQHTPSARR [C6orf223] showed a protein stability index under setting [1] of 4.49 ± 0.38 and a protein stability index under setting [2] of 4.67 ± 0.3.

GFRGSDDMELHRMSRMQSKEYPVV [TBX5] showed a protein stability index under setting [1] of 3.93 ± 0.31 and a protein stability index under setting [2] of 3.98 ± 0.31.

GGLAESELRPRRGRCGPQAARAAG [POMT2]: the protein stability index is, setting by setting: under setting [1], 3.71 ± 0.17; under setting [2], 3.75 ± 0.38.

GGLNRETNEKMLKAVFGKHGPISE [RBMY1A1]: the protein stability index was found to be 3.69 ± 0.28 under setting [1] and 3.81 ± 0.19 under setting [2].

As for GGRDFSAPLTISRVHAGSKAALAA [PDLIM4], the protein stability index is, setting by setting: under setting [1], 3.59 ± 0.24; under setting [2], 3.85 ± 0.27.

In the case of GGRGVSTCSTRFVSGGSAGGYGGG [KRT13], the protein stability index came out at 3.77 ± 0.41 under setting [1] and 3.97 ± 0.15 under setting [2].

GGVLIDRYGRRTAIILSSCLLGLG [SLC2A12] yielded a protein stability index under setting [1] of 2.86 ± 1 and a protein stability index under setting [2] of 2.74 ± 1.3.

Regarding GHEYAAKIINTKKLSARDHQKLER [CAMK2B], the protein stability index is, setting by setting: under setting [1], 4.09 ± 0.24; under setting [2], 4.32 ± 0.19.

In the case of GIDLAVYETLKNAWLQHYAVNSAD [SLC25A25], the protein stability index runs as follows: under setting [1], 2.84 ± 0.44; under setting [2], 2.4 ± 0.33.

For GILHYAHGDSQQTHLLKQGRSSMG [CRY1], the protein stability index under setting [1] was 3.6 ± 0.23 and the protein stability index under setting [2] is 3.52 ± 0.3.

Take GKDQGINIRQKVKELVEFAQDDDR [CLINT1]: the protein stability index runs as follows: under setting [1], 5.15 ± 0.42; under setting [2], 4.91 ± 0.28.

Turning to GKIDFPRHLDFHVKDLIKKLLVVD [PRKX], the protein stability index amounted to 2.44 ± 0.48 under setting [1] and 1.97 ± 0.078 under setting [2].

As to GKVLQNKQAEICQLEEKLEIANED [CCDC89], the protein stability index amounted to 5.26 ± 0.37 under setting [1] and 5.44 ± 0.25 under setting [2].

With GLAIHCMQVHKETIDAVPNAIPGR [ZNF207], the protein stability index under setting [1] is 2.94 ± 0.18 and the protein stability index under setting [2] is 3.04 ± 0.16.

Regarding GLHRRPGAGHCSASPGPAAPTARM, the protein stability index worked out at 3.76 ± 0.31 under setting [1] and 3.64 ± 0.31 under setting [2].

For the sequence GLLWLLLGSAGAQYEKYSFRGFPP [P3H4], the protein stability index is, setting by setting: under setting [1], 3.08 ± 0.098; under setting [2], 3.71 ± 0.62.

Regarding GLNDALDNLRKVVPCYSKTQKLSK [NEUROD6], the protein stability index was 3.25 ± 0.15 under setting [1] and 3.42 ± 0.18 under setting [2].

For GLNLGKKISVPRDVMLEELSLLTN [MYOZ1], the protein stability index runs as follows: under setting [1], 2.72 ± 0.41; under setting [2], 3.1 ± 0.29.
